Source: US8808698B2, “Methods for inhibition of lymphangiogenesis and tumor metastasis” (The Regents of the University of California, priority 2006, dated 2014)
“Also recorded” adds a separate entry of the source.

How the values were obtained:
lymphatic vessels = experiment: Murine lymphangiogenesis and angiogenesis assay in growth factor MATRIGEL plugs; type: in vivo; settings: mice, 400 ng growth factor
Protocol: (§1) Lymphangiogenesis and angiogenesis assays in MATRIGEL were performed as described (Eliceiri et al, 1999, Mol. Cell 4:915) by injecting subcutaneously into wild-type C57B1/6 mice (n=5) 400 μL of cold MATRIGEL containing 400 ng of bFGF, VEGF-A, or VEGF-C (R&D Systems, Minneapolis, Minn.). Mice were then injected twice at day1 and day3 with 200 μl of blocking anti-α4β1 (PS2) or anti-α5β1 (5H10) antibodies, or isotype control antibody. After 7 days, MATRIGEL plugs were removed, embedded in OCT, frozen and sectioned. Thin sections (5 μm) were immunostained with anti-CD31 antibodies.
For quantification, vessel numbers, tumor foci or pixel number in 10 microscopic fields per cryosection (per animal) were quantified and the mean number of vessels+/−s.e.m. for the entire treatment group was determined.

lymph nodes [1] = experiment: Lymph node lymphangiogenesis proximal to implanted VEGF-C MATRIGEL; type: in vivo, mice
Protocol: as §1
(§2) C57BL/6 mice were injected subcutaneously with 350 μl of ice-cold saline or VEGF-C-containing Matrigel (1 μg/ml) proximal to the inguinal lymph node. In parallel, 5×10^5 LLC cells were injected dorsally near the inguinal or brachial lymph nodes. Mice were sacrificed after 1, 7 and 14 days. Mice with stimulated inguinal nodes were also sacrificed after 21 days. Inguinal, brachial and mesenteric lymph nodes were removed and embedded in OCT for cryosectioning and immunohistochemistry.

RFP-LLC cells = experiment: Experimental footpad injection metastasis study (RFP-LLC); type: in vivo, mice
Protocol: Inguinal lymph node lymphangiogenesis was stimulated by injecting mice intradermally above the left inguinal lymph node with 50 μl of saline or VEGF-C (200 ng per mice) every day for 7 days. Mice were inoculated with 10^6 RFP-LLC cells in a volume of 150 μl in the left footpad. Twenty four hours later, mice were sacrificed. Inguinal, brachial and mesenteric lymph nodes were removed and embedded in OCT for cryosectioning and immunofluorescence. RFP-tumor cell and Lyve-1+pixels were quantified on 5 different sections per lymph node.

lymph nodes [2] = experiment: Systemic or local VEGF-C injections in normal mice, lymph node lymphangiogenesis; type: in vivo
Lewis lung carcinoma = experiment: Local VEGF-C stimulation of lymph nodes in LLC tumor-bearing mice; type: in vivo
Protocol: as §2

LLC cells = experiment: Transwell migration of LLC cells; type: cell-based, murine; settings: 10, 100 or 500 ng/ml
Protocol: FIG. 29. Analysis of LLC cell expression of integrin α4 and VEGF-R3. A) Expression of VEGF-R3, integrins α5β1 and α4β1 (black lines) on LLC cells was evaluated by flow cytometry. Grey lines depict binding of isotype matched control IgG. While 100% of cells express integrin α5β1, none express α4β1 or VEGF-R3. B) Transwell migration of LLC cells in the presence or absence of serum or VEGF-C at 10, 100 or 500 ng/ml.

“bFGF: angiogenic growth factor (R&D Systems) [reference compound]” was tested, and the “invasion of growth factor saturated MATRIGEL by new lymphatic vessels” value (lymphatic vessels) was “new lymphatic vessels invade”.

B1: VEGF-C: lymphangiogenesis-promoting growth factor (R&D Systems) used as stimulus (protein, UniProt P49767 112-227, looked up)
Vascular endothelial growth …: AHYNTEILKSIDNEWRKTQCMPREVCIDVGKEFGVATNTFFKPPCVSVYRCGGCCNSEGLQCMNTSTSYLSKTLFEITVPLSQGPKPVTISFANHTSCRCMSKLDVYRQVHSIIRR
For B1, the “invasion of growth factor saturated MATRIGEL by new lymphatic vessels” value (lymphatic vessels) was “new lymphatic vessels invade”, the “lymph node lymphatic vessel density / lymphangiogenesis” value (lymph nodes [1]; VEGF-C stimulated lymph nodes) was “significant increase” and the lymph node size (lymph nodes [1]; lymph nodes proximal to implanted MATRIGEL containing VEGF-C) was “expanded dramatically in size”. For the same molecule, the “tumor cell retention in the stimulated inguinal lymph node” value (RFP-LLC cells; RFP-LLC into footpad, 24 h) was “strongly enhanced”, the “tumor cell retention in unstimulated brachial or mesenteric lymph nodes” value (RFP-LLC cells; RFP-LLC into footpad, 24 h) was “not and No statistical difference” and the “lymphangiogenesis in stimulated inguinal lymph node” value (RFP-LLC cells; intradermal injections for 7 days, non-tumor bearing mice, versus saline) was “significantly induced”. For the same molecule, the “lymph node lymphangiogenesis after local injections proximal to a single lymph node” value (lymph nodes [2]; normal mice, local) was “specifically affected this and not other nodes”, the “lymph node lymphangiogenesis after systemic injections” value (lymph nodes [2]; normal mice, systemic) was “Widespread lymph node lymphangiogenesis” and the “blood vessels within lymph nodes (CD31+ pixels/field)” value (lymph nodes [2]; versus saline) was “no significant effect; also recorded: No statistical difference”. For the same molecule, the “lymphatic vessel density in draining (inguinal) lymph node” value (Lewis lung carcinoma; local injection, versus saline) was “significantly increased”, the “lymphangiogenesis and metastasis to other lymph nodes” value (Lewis lung carcinoma; local stimulation of inguinal node) was “no effect” and the “primary tumor growth (tumor volume)” value (Lewis lung carcinoma; local stimulation of inguinal node, after 21 days) was “no effect; also recorded: No statistical difference”. For the same molecule, the “time at which tumor metastases were induced” value (Lewis lung carcinoma; local stimulation of inguinal node, 21 days for saline treated animals) was ≤ 14 days, the “lymphangiogenesis in stimulated distant (brachial) lymph node” value (Lewis lung carcinoma; stimulation of brachial node) was “selectively enhanced” and the “metastasis to stimulated distant (brachial) lymph node” value (Lewis lung carcinoma; stimulation of brachial node) was “accelerated metastasis by one week”. For the same molecule, the “rate of lymphangiogenesis or metastasis to inguinal or mesenteric nodes” value (Lewis lung carcinoma; stimulation of brachial node) was “without affecting” and the “LLC cell migration in response to growth factor” value (LLC cells) was “do not migrate”.
